Data published in patent US20260374838 (published 2026).
Like-named read-outs stand apart in the source and are kept apart here.

T1: murine CD200R1 (mouse, UniProt Q9ES57)
T1 chain: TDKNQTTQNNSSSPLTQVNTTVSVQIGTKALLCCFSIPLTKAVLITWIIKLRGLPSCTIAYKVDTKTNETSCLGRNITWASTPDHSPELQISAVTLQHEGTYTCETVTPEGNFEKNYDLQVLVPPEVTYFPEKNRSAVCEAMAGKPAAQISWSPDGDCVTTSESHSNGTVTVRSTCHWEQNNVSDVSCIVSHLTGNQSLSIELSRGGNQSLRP

T2: human CD200R (human, UniProt Q8TD46)
T2 chain: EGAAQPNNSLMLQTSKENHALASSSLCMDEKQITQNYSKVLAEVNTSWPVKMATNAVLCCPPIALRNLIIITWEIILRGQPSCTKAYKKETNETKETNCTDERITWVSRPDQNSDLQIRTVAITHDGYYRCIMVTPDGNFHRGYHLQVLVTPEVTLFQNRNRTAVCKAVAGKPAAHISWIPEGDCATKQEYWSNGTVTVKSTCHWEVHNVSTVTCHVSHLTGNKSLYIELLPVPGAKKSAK

T3: human CD200R1L (human, UniProt Q6Q8B3)
T3 chain: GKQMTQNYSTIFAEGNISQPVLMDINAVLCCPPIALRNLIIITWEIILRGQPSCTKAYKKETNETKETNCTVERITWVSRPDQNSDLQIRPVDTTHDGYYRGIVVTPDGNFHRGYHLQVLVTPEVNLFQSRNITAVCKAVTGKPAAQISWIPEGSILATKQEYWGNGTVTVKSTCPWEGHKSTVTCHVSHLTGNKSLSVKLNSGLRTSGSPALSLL


How the values were obtained:
murine CD200R1 [1] = biological target: T1, murine CD200R1; assay: SPR
human CD200R [2] = biological target: T2, human CD200R; assay: SPR, 25C
murine CD200R1 [3] = biological target: T1, murine CD200R1; assay: SPR, 25C
human CD200R [4] = biological target: T2, human CD200R; assay: SPR, 25C
human CD200R1L = biological target: T3, human CD200R1L; assay: SPR, 25C

Row | Binder | Kd (murine CD200R1 [1]) | Kd (human CD200R [2]) | binding result (murine CD200R1 [3]) | Kd (human CD200R [4]) | binding result (human CD200R1L)
1 | DS-227 (protein) QVEVVTQDERKALHTTASLRCSLKTSQEPLIVTWQKKKAVSPENMVTYSKTYGVVIQPAYKDRINVTELGLWNSSITFWNTTLEDEGCYMCLFNIFGSQKVSGTACLTLYVQPIVHLHYNYFEDHLNITCSATARPAPAISWKGTGTGIENSTESHFHSNGTTSVTSILRVKDPKTQVGKEVICQVLYLGNVIDYKQSLDKG | 43.3 nM | – | – | – | –
2 | DS-198 (protein, wild-type murine CD200 fused to murine IgG2a Fc) QVEVVTQDERKALHTTASLRCSLKTSQEPLIVTWQKKKAVSPENMVTYSKTHGVVIQPAYKDRINVTELGLWNSSITFWNTTLEDEGCYMCLFNTFGSQKVSGTACLTLYVQPIVHLHYNYFEDHLNITCSATARPAPAISWKGTGTGIENSTESHFHSNGTTSVTSILRVKDPKTQVGKEVICQVLYLGNVIDYKQSLDKG | 584 nM | – | – | – | –
3 | DS-118 (antibody) QVQVVTQDEREQLYTPASLKCSLQNAQEALIVTWQKKKAVSPENMVTFSENHGVVIQPAYKDKINITQLGLQNSTITFWNITLEDEGCYMCLFNTFGFGYYSGTACLTVYVQPIVSLHYKFSEDHLNITCSATARPAPMVFWKVPRSGIENSTVTLSHPNGTTSVTSILHIKDPKNQVGKEVICQVLHLGTVTDFKQTVNKGPPCPPCPAPEFLGGPSVFLFPPKPKDTLMISRTPEVTCVVVDVSQEDPEVQFNWYVDGVEVHNAKTKPREEQFNSTYRVVSVLTVLHQDWLNGKEYKCKVSNKGLPSSIEKTISKAKGQPREPQVYTLPPSQEEMTKNQVSLTCLVKGFYPSDIAVEWESNGQPENNYKTTPPVLDSDGSFFLYSRLTVDKSRWQEGNVFSCSVMHEALHNHYTQKSLSLSLGK | – | 1.3 nM | no binding | 1.3 nM | no binding
4 | DS-20 (antibody, wild-type CD200 ectodomain fused to human IgG1 Fc (dimer); UniProt numbering) QVQVVTQDEREQLYTPASLKCSLQNAQEALIVTWQKKKAVSPENMVTFSENHGVVIQPAYKDKINITQLGLQNSTITFWNITLEDEGCYMCLFNTFGFGKISGTACLTVYVQPIVSLHYKFSEDHLNITCSATARPAPMVFWKVPRSGIENSTVTLSHPNGTTSVTSILHIKDPKNQVGKEVICQVLHLGTVTDFKQTVNKG | – | 111 nM | no binding | – | no binding
5 | DS-155 (antibody, wild-type CD200 ectodomain fused to human IgG4 S228P Fc (dimer); UniProt numbering) QVQVVTQDEREQLYTPASLKCSLQNAQEALIVTWQKKKAVSPENMVTFSENHGVVIQPAYKDKINITQLGLQNSTITFWNITLEDEGCYMCLFNTFGFGKISGTACLTVYVQPIVSLHYKFSEDHLNITCSATARPAPMVFWKVPRSGIENSTVTLSHPNGTTSVTSILHIKDPKNQVGKEVICQVLHLGTVTDFKQTVNKG | – | 179 nM | no binding | 179 nM | no binding
